# Laboratory results taken from paper PMC8693861.
# Legend:
# [1] = biological target: full-length N-terminal signaling domain of human Sonic hedgehog (ShhN), residues 24-193, without lipid attachments (UniProt Q15465); assay: BLI; details: 4 μM SHH (per earlier reader's note; not printed in panel or legend); parent: est. 0.077; read off a plot
# [2] = biological target: biotinylated human HHAT-Avi-1D4 (pHR-CMV-TetO2-HHAT-wildtype-Avi-1D4) (human) (UniProt Q5VTY9); assay: BLI; SHH on immobilised biotinylated HHAT-Avi-1D4, 22°C, same buffer without nhPalm-CoA
# [3] = biological target: biotinylated human HHAT-Avi-1D4 (pHR-CMV-TetO2-HHAT-wildtype-Avi-1D4) (human) (UniProt Q5VTY9); assay: BLI; biotinylated HHAT-Avi-1D4 on streptavidin biosensors, 22°C, SHH in 10 mM HEPES pH 7.5, 150 mM NaCl, 0.06% DDM 40:1 CHS, 1 mM DTT, 5 mM CaCl2 with 5-10 mM nhPalm-CoA; multi-cycle kinetics, 300 s association and dissociation, 1:1.5 dilution series from 5 μM; one to two state binding model
response [1],fold reduction of binding without nhPalm-CoA against with nhPalm-CoA [2],percent reduction of binding without Palm-CoA [2],Kd [3],Substance
-0.012 nm,,,,biotinylated human HHAT-Avi-1D4 (pHR-CMV-TetO2-HHAT-wildtype-Avi-1D4) (from UniProt Q5VTY9) E59R
0.011 nm,,,,biotinylated human HHAT-Avi-1D4 (pHR-CMV-TetO2-HHAT-wildtype-Avi-1D4) (from UniProt Q5VTY9) Y382A; Y384A
,3 fold,50%,3.7 µM,"full-length N-terminal signaling domain of human Sonic hedgehog (ShhN), residues 24-193, without lipid attachments (from UniProt Q15465 24-193) (domain or fragment)"
